Positions count from the first letter of the chain named.
Experiments:
[1] = biological target: T1, AnkG 38–855 (AnkG MBD-AI-c protein; MBD + partial AI-c) (rat, UniProt O70511-1 38-855); assay: ITC
T1 chain: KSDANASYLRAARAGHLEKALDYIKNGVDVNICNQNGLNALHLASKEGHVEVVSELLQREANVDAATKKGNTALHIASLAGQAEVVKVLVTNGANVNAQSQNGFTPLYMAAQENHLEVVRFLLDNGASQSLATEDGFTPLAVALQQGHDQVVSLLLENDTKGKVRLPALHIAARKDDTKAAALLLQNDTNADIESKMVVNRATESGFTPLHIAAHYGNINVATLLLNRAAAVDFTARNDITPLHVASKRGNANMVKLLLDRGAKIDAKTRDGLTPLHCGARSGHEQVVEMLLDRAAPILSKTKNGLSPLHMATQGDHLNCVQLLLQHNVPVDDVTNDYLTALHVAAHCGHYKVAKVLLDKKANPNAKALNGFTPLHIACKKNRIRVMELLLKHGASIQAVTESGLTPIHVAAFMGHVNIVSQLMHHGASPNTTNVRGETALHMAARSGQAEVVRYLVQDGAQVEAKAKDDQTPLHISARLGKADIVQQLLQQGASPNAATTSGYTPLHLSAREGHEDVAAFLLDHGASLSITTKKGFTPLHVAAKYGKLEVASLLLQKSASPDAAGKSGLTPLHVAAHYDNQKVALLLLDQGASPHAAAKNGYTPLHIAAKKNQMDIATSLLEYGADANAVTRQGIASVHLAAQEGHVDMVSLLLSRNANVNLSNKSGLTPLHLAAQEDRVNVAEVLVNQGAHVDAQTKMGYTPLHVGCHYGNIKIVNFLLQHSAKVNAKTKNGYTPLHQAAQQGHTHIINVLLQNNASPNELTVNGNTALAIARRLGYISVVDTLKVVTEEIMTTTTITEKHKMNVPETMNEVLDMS

[2] = biological target: T2, AnkG_MBD 'site-1' mutant (Phe141Gln, Phe164Gln) (rat); assay: ITC
T2 chain: T1 chain with F104Q, F137Q

[3] = biological target: T3, AnkG_MBD 'site-2' mutant (Ile277Gln, Leu310Gln) (rat, UniProt O70511-1 38-855, Ile277Gln | Leu310Gln); assay: ITC
T3 sequence: T1 chain with I240Q, L273Q

[4] = biological target: T4, AnkB MBD 'site-2' mutant (Ile267Gln, Leu300Gln) (human, UniProt Q01484-2 28-847, Ile267Gln | Leu300Gln); assay: ITC
T4 sequence: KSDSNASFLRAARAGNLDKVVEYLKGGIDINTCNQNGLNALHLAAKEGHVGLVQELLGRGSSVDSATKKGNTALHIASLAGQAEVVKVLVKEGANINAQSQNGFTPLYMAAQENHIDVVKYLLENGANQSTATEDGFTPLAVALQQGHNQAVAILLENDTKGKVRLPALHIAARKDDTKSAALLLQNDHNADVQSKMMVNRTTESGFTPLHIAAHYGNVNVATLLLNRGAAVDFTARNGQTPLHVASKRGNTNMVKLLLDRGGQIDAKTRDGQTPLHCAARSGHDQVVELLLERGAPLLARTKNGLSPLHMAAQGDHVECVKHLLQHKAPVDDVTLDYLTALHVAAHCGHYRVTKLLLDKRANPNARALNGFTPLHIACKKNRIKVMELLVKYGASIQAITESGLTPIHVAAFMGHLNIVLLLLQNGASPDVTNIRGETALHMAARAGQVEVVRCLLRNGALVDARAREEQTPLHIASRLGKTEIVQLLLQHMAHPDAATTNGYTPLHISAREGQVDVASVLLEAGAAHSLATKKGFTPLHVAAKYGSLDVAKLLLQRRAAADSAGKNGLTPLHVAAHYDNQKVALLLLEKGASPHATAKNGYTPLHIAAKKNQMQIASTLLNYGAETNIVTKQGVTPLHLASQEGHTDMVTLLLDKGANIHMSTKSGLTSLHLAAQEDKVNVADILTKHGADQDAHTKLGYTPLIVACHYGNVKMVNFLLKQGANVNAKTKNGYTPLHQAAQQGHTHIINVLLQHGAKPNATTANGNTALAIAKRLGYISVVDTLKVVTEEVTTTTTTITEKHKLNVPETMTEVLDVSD

[5] = biological target: T5, AnkB 28–847 (MBD + partial AI-c) (human, UniProt Q01484-2 28-847); assay: ITC
T5 chain: T4 sequence with Q240I, Q273L

[6] = biological target: T1, AnkG 38–855 (AnkG MBD-AI-c protein; MBD …); assay: ITC; two sites

B1: AnkG linker ΔAI-c (aa 861–920) (domain or fragment)
chain: KASAPEKLSDGEYISDGEEGEDAITGDTDKYLGPQDLKELGDDSLPAEGYVGFSLGARSA
- Kd [1]: 1.6 µM
- Kd [2]: 2.6 µM
- Kd [3]: 3.9 µM

B2: AnkB_AI-b (aa 865–896) (domain or fragment)
chain: EDLKELGDDSLPSSQFLDGMNYLRYSLEGGRS
- Kd [4]: 8.5 µM
- Kd [5]: 3.7 µM

B3: AnkG long linker (aa 837–920; AI-c + AI-b) (domain or fragment)
chain: TEKHKMNVPETMNEVLDMSDDEVGKASAPEKLSDGEYISDGEEGEDAITGDTDKYLGPQDLKELGDDSLPAEGYVGFSLGARSA
- Kd [6]: ~3 µM
